Measurements: paper PMC7855469

Target: radial spoke protein 9 (RSP9) (C. reinhardtii)
Test: cryo-EM structure

- stoichiometry N: 2
Substance: radial spoke protein 9 (RSP9) (natural protein)
